Measurements as given in patent US20160058848A1.

Tests used:
[1] = target: T1, human corin mutant R801A, Q9Y5Q5
T1 chain: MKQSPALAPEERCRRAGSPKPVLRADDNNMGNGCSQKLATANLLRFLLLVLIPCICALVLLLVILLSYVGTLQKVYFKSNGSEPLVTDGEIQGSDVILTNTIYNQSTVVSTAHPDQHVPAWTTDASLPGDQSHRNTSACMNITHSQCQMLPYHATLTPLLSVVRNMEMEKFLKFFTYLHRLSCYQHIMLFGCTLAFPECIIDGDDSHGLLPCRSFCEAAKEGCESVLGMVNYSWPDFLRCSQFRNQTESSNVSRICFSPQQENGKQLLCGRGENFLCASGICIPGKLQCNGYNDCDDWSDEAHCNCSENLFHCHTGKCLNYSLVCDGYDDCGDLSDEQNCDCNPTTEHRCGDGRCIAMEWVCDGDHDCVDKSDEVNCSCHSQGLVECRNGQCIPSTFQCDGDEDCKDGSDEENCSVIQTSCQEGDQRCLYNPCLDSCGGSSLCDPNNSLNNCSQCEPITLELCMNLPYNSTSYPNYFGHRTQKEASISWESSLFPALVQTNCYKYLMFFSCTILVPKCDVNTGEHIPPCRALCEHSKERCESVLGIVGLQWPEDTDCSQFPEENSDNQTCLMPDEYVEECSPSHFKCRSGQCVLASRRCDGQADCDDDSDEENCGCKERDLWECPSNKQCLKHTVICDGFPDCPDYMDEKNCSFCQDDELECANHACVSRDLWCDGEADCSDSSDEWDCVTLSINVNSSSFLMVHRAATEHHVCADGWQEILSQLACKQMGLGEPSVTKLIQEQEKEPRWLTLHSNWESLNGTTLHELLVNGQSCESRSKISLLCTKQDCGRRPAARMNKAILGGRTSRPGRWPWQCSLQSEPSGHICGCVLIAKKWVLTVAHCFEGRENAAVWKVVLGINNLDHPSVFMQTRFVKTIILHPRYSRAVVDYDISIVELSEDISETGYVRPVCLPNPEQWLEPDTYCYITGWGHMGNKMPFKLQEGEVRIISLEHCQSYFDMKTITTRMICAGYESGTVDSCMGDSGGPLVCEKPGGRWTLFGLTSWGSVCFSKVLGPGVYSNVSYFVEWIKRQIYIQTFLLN

[2] = target: T2, recombinant human corin wild-type (WT), Q9Y5Q5
T2 chain: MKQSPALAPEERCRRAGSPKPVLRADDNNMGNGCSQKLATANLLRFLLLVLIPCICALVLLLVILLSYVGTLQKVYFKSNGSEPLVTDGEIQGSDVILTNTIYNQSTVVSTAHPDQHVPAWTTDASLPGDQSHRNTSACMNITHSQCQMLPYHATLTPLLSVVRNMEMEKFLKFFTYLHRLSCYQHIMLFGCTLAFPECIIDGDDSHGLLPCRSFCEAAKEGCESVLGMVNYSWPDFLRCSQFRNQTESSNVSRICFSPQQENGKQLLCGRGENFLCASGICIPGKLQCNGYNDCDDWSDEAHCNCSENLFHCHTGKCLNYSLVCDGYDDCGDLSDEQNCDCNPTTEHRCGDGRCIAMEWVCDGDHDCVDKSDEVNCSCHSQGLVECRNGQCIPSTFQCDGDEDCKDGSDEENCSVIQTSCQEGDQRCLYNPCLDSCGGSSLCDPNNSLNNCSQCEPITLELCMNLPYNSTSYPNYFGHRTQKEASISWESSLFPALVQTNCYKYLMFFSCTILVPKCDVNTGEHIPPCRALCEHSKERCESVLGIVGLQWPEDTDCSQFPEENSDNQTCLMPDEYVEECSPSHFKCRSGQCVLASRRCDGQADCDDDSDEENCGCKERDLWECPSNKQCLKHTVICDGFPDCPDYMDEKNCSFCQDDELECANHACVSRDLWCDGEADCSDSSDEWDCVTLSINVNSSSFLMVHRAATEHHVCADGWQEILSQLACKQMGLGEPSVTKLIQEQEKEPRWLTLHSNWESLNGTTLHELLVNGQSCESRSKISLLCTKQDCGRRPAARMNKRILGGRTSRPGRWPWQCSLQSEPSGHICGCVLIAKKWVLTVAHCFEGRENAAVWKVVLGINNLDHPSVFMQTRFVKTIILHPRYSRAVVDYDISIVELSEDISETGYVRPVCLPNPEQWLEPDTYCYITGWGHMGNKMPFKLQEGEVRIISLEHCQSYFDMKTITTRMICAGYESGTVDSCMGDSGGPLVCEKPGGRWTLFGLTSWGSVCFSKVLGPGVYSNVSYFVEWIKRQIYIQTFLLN

[3] = target: T3, human corin variant T555I, Q9Y5Q5
T3 chain: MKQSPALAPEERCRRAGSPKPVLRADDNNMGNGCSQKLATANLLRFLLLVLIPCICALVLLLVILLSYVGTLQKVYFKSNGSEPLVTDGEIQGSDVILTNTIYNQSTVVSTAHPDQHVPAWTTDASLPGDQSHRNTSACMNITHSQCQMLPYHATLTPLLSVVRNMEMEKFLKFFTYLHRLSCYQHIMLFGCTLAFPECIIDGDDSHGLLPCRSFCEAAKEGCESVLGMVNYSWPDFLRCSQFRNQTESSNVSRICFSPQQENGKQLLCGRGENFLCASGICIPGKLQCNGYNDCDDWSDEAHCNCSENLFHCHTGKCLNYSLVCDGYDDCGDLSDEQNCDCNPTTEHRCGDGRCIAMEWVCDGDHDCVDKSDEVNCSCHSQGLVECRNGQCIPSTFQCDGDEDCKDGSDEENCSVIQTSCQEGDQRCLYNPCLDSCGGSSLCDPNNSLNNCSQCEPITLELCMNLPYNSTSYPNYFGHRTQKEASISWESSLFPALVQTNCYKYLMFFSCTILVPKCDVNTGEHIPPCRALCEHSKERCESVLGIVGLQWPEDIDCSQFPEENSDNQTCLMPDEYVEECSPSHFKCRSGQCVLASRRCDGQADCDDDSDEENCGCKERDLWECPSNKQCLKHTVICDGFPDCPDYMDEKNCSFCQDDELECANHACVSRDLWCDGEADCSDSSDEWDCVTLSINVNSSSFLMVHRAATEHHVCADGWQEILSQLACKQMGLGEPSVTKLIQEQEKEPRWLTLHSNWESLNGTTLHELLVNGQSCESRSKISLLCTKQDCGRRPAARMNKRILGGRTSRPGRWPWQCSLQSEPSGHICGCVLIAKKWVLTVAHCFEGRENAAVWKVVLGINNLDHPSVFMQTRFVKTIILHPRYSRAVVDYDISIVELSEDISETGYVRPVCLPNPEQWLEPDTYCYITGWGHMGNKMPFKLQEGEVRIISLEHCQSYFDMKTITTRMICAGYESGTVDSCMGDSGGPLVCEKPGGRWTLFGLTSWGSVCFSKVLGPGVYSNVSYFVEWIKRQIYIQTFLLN

B1: recombinant human proprotein convertase subtilisin/kexin-6 (PCSK6) with a C-terminal flag tag (protein)
chain: QVRSDPQALYFNDPIWSNMWYLHCGDKNSRCRSEMNVQAAWKRGYTGKNVVVTILDDGIERNHPDLAPNYDSYASYDVNGNDYDPSPRYDASNENKHGTRCAGEVAASANNSYCIVGIAYNAKIGGIRMLDGDVTDVVEAKSLGIRPNYIDIYSASWGPDDDGKTVDGPGRLAKQAFEYGIKKGRQGLGSIFVWASGNGGREGDYCSCDGYTNSIYTISVSSATENGYKPWYLEECASTLATTYSSGAFYERKIVTTDLRQRCTDGHTGTSVSAPMVAGIIALALEANSQLTWRDVQHLLVKTSRPAHLKASDWKVNGAGHKVSHFYGFGLVDAEALVVEAKKWTAVPSQHMCVAASDKRPRSIPLVQVLRTTALTSACAEHSDQRVVYLEHVVVRTSISHPRRGDLQIYLVSPSGTKSQLLAKRLLDLSNEGFTNWEFMTVHCWGEKAEGQWTLEIQDLPSQVRNPEKQGKLKEWSLILYGTAEHPYHTFSAHQSRSRMLELSAPELEPPKAALSPSQVEVPEDEEDYTAQSTPGSANILQTSVCHPECGDKGCDGPNADQCLNCVHFSLGSVKTSRKCVSVCPLGYFGDTAARRCRRCHKGCETCSSRAATQCLSCRRGFYHHQEMNTCVTLCPAGFYADESQKNCLKCHPSCKKCVDEPEKCTVCKEGFSLARGSCIPDCEPGTYFDSELIRCGECHHTCGTCVGPGREECIHCAKNFHFHDWKCVPACGEGFYPEEMPGLPHKVCRRCDENCLSCAGSSRNCSRCKTGFTQLGTSCITNHTCSNADETFCEMVKSNRLCERKLFIQFCCRTCLLAG
PCSK6-mediated activation cleavage (Western blot, densitometry) [1]: In controls, no activation cleavage was detected in mutant R801A lacking the cleavage site | PCSK6-mediated activation cleavage (Western blot, densitometry) [2]: PCSK6-mediated activation cleavage was detected in corin WT and variants T555I or Q568P, but not variant T555I/Q568P | PCSK6-mediated activation cleavage (Western blot, densitometry) [3]: PCSK6-mediated activation cleavage was detected in corin WT and variants T555I or Q568P, but not variant T555I/Q568P
